B1: PP1104 MBP-5HVZ-PAPA-RN-19-H6 (VHH)
VHH: QVQLVESGGGLVQPGGSLRLSCAASGIDDSIGAMHWFRQAPGKGREFVAALSGTGTTSYADSVKGRFTISRDNAKNTVYLQMNSLKPEDTAVYYCAAAFPAGGDYWGQGTQVTVSS
notes: Form: Dimer
B2: PP1094 MBP-5HVZ-PAPA-RN-1-H6 (VHH)
VHH: QVQLVESGGGLVQPGGSLRLSCAASGYIFEGGPTAWFRQAPGKGREFVAAITTSGETSYAYSVKGRFTISRDNAKNTVYLQMNSLKPEDTAVYYCNATDRDETGYDYWGQGTQVTVSS
B3: PP930 MBP-5HVZ-R2b-D4-H6 (VHH)
VHH: QVQLVESGGGLVQPGGSLRLSCAASGSYASIASMHWFRQAPGKQREFVAGLTSGGSRIYGDSVKGRFTISRDNAKNTVYLQMNSLKPEDTAVYYCTALILHYAGMYDYWGQGTQVTVSS
notes: Form: Dimer
B4: PP927 MBP-5HVZ-R1i-C8-H6 (VHH)
VHH: QVQLVESGGGLVQPGGSLRLSCAASGRQFGAWRMHWYRQAPGKQREWVAGITSGTSGNYADSVKGRFTISRDNAKNTVYLQMNSLKPEDTAVYYCAATSHTTYHAEYWGQGTQVTVSS
notes: Form: Dimer
B5: PP906 MBP-5HVZ-S1b-E7-H6 (VHH)
VHH: QVQLVESGGGLVQPGGSLRLSCAASGGEFSDNGLHWFRQAPGKQREFVATASSDGSTQYRDSVKGRFTISRDNAKNTVYLQMNSLKPEDTAVYYCTALLMSSAGEYDVWGQGTQVTVSS
notes: Form: Dimer
B6: PP1099 MBP-5HVZ-PAPA-RN-12-H6 (VHH)
VHH: QVQLVESGGGLVQPGGSLRLSCAASGSSFEGNAVHWFRQAPGKNREFVATITTSTSYYYADSVKGRFTISRDNAKNTVYLQMNSLKPEDTAVYYCAARLKDRGPQSEYDYWGQGTQVTVSS
notes: Form: Dimer
B7: PP1154 MBP-5HVZ-PAPA-R5d-G1-H6 (VHH)
VHH: QVQLVESGGGLVQPGGSLRLSCAASGSIFGINDVHWFRQAPGKEREFVATITNGLSARYKDSVKGRFTISRDNAKNTVYLQMNSLKPEDTAVYYCAAQVYITTYELYDYWGQGTQVTVSS
notes: Form: Dimer
B8: PP1145 MBP-5HVZ-PAPA-R2d-A6-H6 (VHH)
VHH: QVQLVESGGGLVQPGGSLRLSCAASGSGASIGAMHWFRQAPGKGREWVASITSAGNTYYGDSVKGRFTISRDNAKNTVYLQMNSLKPEDTAVYYCNALAGANYESQWEEYNYWGQGTQVTVSS
notes: Form: Dimer
B9: PP1101 MBP-5HVZ-PAPA-RN-16-H6 (VHH)
VHH: QVQLVESGGGLVQPGGSLRLSCAASGADFSSNAMHWFRQAPGKAREFVASIDSDKSGYYADSVKGRFTISRDNAKNTVYLQMNSLKPEDTAVYYCNAYSGTDNYGYDYWGQGTQVTVSS
notes: Form: Dimer
B10: PP1112 MBP-5HVZ-PAPA-RN-28-H6 (VHH)
VHH: QVQLVESGGGLVQPGGSLRLSCAASGSQFSHNLMSWFRQAPGKQREFVAAITSFGSTGYADSVKGRFTISRDNAKNTVYLQMNSLKPEDTAVYYCAALSSEDTSHYPRNYWGQGTQVTVSS
notes: Form: Dimer
B11: PP1160 MPB-scTRP-PAPA-R5a-C5-H6 (VHH)
VHH: QVQLVESGGGLVQPGGSLRLSCAASGDIFSINALHWFRQAPGKQREEVAAITSGGSTGYADSVKGRFTISRDNAKNTVYLQMNSLKPEDTAVYYCAAQQARGGLDSDYWGQGTQVTVSS
notes: Form: Trimer
B12: PP931 MBP-5HVZ-R5a-F5-H6 (VHH)
VHH: QVQLVESGGGLVQPGGSLRLSCAASGYHASILAMHWVRQAPGKEREWVASMTWSDMTQYSDSVKGRFTISRDNAKNTVYLQMNSLKPEDTAVYYCAATYVTRDRPWTHWGQGTQVTVSS
notes: Form: Dimer
B13: PP915 MBP-5HVZ-S3b-A7-H6 (VHH)
VHH: QVQLVESGGGLVQPGGSLRLSCAASGSIASINAIHWVRQAPGKQREEVAAITSGGSTGYADSVKGRFTISRDNAKNTVYLQMNSLKPEDTAVYYCAAQPGQSYAVWGQGTQVTVSS
notes: Form: Dimer
B14: PP1176 MBP-5HVZ-PAPA-R2a-F3-H6 (VHH)
VHH: QVQLVESGGGLVQPGGSLRLSCAASGSITSINWMHWFRQAPGKDREGVASISQTGRGSYADSVKGRFTISRDNAKNTVYLQMNSLKPEDTAVYYCAAASRTGTPYNYWGQGTQVTVSS
notes: Form: Dimer
B15: PP1109 MBP-5HVZ-PAPA-RN-25-H6 (VHH)
VHH: QVQLVESGGGLVQPGGSLRLSCAASGEDYSYNAAHWFRQAPGKEREWVAAINSGGGTYYADSVKGRFTISRDNAKNTVYLQMNSLKPEDTAVYYCAYLGALDRDGYDAWGQGTQVTVSS
notes: Form: Dimer
B16: PP1110 MBP-5HVZ-PAPA-RN-26-H6 (VHH)
VHH: QVQLVESGGGLVQPGGSLRLSCAASGSISSINSMHWYRQAPGKEREWVAAVSSYGSDYYADSVKGRFTISRDNAKNTVYLQMNSLKPEDTAVYYCAARTVTGFTYGDYWGQGTQVTVSS
notes: Form: Dimer
B17: PP912 MBP-5HVZ-S2b-G8-H6 (VHH)
VHH: QVQLVESGGGLVQPGGSLRLSCAASGSIQSYEAMHWFRQAPGKAREWVAVITWGDSTQYGDSVKGRFTISRDNAKNTVYLQMNSLKPEDTAVYYCAADVRQGYSSWGQGTQVTVSS
notes: Form: Dimer
B18: PP1105 MBP-5HVZ-PAPA-RN-20-H6 (VHH)
VHH: QVQLVESGGGLVQPGGSLRLSCAASGNYFEINKMHWFRQAPGKQREFVATIGSGGSTAYADSVKGRFTISRDNAKNTVYLQMNSLKPEDTAVYYCNALIYLADRRDGYYSYDYWGQGTQVTVSS
notes: Form: Dimer
B19: PP1111 MBP-5HVZ-PAPA-RN-27-H6 (VHH)
VHH: QVQLVESGGGLVQPGGSLRLSCAASGPQFSSNAVSWFRQAPGKEREWVAGITSGGSTDYADSVKGRFTISRDNAKNTVYLQMNSLKPEDTAVYYCTAPSVSDADRRTRDYWGQGTQVTVSS
notes: Form: Dimer
B20: PP1095 MBP-5HVZ-PAPA-RN-2-H6 (VHH)
VHH: QVQLVESGGGLVQPGGSLRLSCAASGSYFSKNAVHWYRQAPGKGREWVAALTNSGSGNYKDSVKGRFTISRDNAKNTVYLQMNSLKPEDTAVYYCTANISESTGQGYDYWGQGTQVTVSS
B21: PP1098 MBP-5HVZ-PAPA-RN-9-H6 (VHH)
VHH: QVQLVESGGGLVQPGGSLRLSCAASGLRFAMTEMAWFRQAPGKQREFVALITEGGSGSYGDSVKGRFTISRDNAKNTVYLQMNSLKPEDTAVYYCAALHYTEGANTESATTFDYWGQGTQVTVSS
B22: PP933 MBP-5HVZ-R5e-C1-H6 (VHH)
VHH: QVQLVESGGGLVQPGGSLRLSCAASGSIPYVQAMSWFRQAPGKGREGVASIGWGGGTYYADSVKGRFTISRDNAKNTVYLQMNSLKPEDTAVYYCAAKFRENFSFYDYWGQGTQVTVSS
notes: Form: Dimer
B23: PP909 MBP-5HVZ-S2b-A7-H6 (VHH)
VHH: QVQLVESGGGLVQPGGSLRLSCAASGSSDSWNALHWFRQAPGKEREFVAGISSAGSGYYADSVKGRFTISRDNAKNTVYLQMNSLKPEDTAVYYCNGYEHTTGYDYWGQGTQVTVSS
notes: Form: Dimer

Each binder was assayed against T1, SARS-CoV-2 spike protein on pseudotyped lentivirus (Wuhan Reference Pseudovirus) (SARS-CoV-2, UniProt P0DTC2 14-1273) (assay: cell-based or functional assay).

| Binder | infectivity % under 10 ug/mL VHH treatment |
| --- | --- |
| B1 | 73.8% |
| B2 | 83.4% |
| B3 | 35.6% |
| B4 | 45.4% |
| B5 | 69.6% |
| B6 | 70.6% |
| B7 | 53.2% |
| B8 | 65.2% |
| B9 | 91.8% |
| B10 | 70.4% |
| B11 | 4.22% |
| B12 | 57.5% |
| B13 | 90.5% |
| B14 | 58.4% |
| B15 | 88% |
| B16 | 57.9% |
| B17 | 73.2% |
| B18 | 79.8% |
| B19 | 68.3% |
| B20 | 76.8% |
| B21 | 58.3% |

These binders were tested against T2, SARS-CoV-2 Delta Variant RBD (SARS-CoV-2 Delta variant) (assay: ELISA, RBD coated).
T2 construct: domain: RBD; coated on ELISA plates

| Binder | EC50 |
| --- | --- |
| B1 | 295 nM |
| B2 | 49.9 nM |
| B3 | 21.1 nM |
| B22 | 8.87 nM |
| B4 | 94.2 nM |
| B5 | 205 nM |
| B7 | 221 nM |
| B8 | 89 nM |
| B9 | 42.6 nM |
| B10 | 15.1 nM |
| B12 | 127 nM |
| B13 | 37.8 nM |
| B14 | 2.67 nM |
| B15 | 115 nM |
| B16 | 407 nM |
| B23 | 81.4 nM |
| B17 | 622 nM |
| B18 | 36.6 nM |
| B19 | 231 nM |
| B20 | 16.9 nM |

What follows are binders tested against T3, SARS-CoV-2 Gamma Variant RBD (SARS-CoV-2 Gamma variant) (assay: ELISA, RBD coated).
T3 construct: domain: RBD; coated on ELISA plates

| Binder | EC50 |
| --- | --- |
| B1 | 29.5 nM |
| B2 | 160 nM |
| B3 | 10.2 nM |
| B22 | 9.73 nM |
| B5 | 378 nM |
| B6 | 160 nM |
| B7 | 15.8 nM |
| B8 | 5.49 nM |
| B9 | 51.5 nM |
| B10 | 3.01 nM |
| B12 | 110 nM |
| B15 | 11 nM |
| B16 | 8.98 nM |
| B23 | 5.37 nM |
| B17 | 177 nM |
| B18 | 15.4 nM |
| B19 | 1.6 nM |
| B20 | 90.9 nM |
| B21 | 11.2 nM |

What follows are binders tested against T4, SARS-CoV-2 Alpha Variant RBD (SARS-CoV-2 Alpha variant) (assay: ELISA, RBD coated).
T4 construct: domain: RBD; coated on ELISA plates

| Binder | EC50 |
| --- | --- |
| B1 | 1.09 nM |
| B2 | 0.89 nM |
| B3 | 3.9 nM |
| B22 | 9.74 nM |
| B4 | 2.22 nM |
| B5 | 1.97 nM |
| B6 | 4.95 nM |
| B7 | 2.37 nM |
| B8 | 1.94 nM |
| B9 | 1.77 nM |
| B10 | 1.76 nM |
| B12 | 2.07 nM |
| B13 | 0.52 nM |
| B14 | 0.27 nM |
| B15 | 1.12 nM |
| B16 | 4.98 nM |
| B23 | 0.44 nM |
| B17 | 1.96 nM |
| B18 | 1.41 nM |
| B19 | 0.31 nM |
| B20 | 1.18 nM |
| B21 | 0.97 nM |

Each binder was assayed against T5, SARS-CoV-2 Beta Variant RBD (SARS-CoV-2 Beta variant) (assay: ELISA, RBD coated).
T5 construct: domain: RBD; coated on ELISA plates

| Binder | EC50 |
| --- | --- |
| B1 | 44.9 nM |
| B2 | 315 nM |
| B3 | 13 nM |
| B22 | 10.2 nM |
| B5 | 988 nM |
| B6 | 194 nM |
| B7 | 24.7 nM |
| B8 | 30.9 nM |
| B9 | 115 nM |
| B10 | 4.77 nM |
| B12 | 134 nM |
| B15 | 17.1 nM |
| B16 | 17 nM |
| B23 | 8.1 nM |
| B17 | 365 nM |
| B18 | 26.6 nM |
| B19 | 1.57 nM |
| B20 | 193 nM |
| B21 | 24.8 nM |

Molecular target: T1, SARS-CoV-2 spike protein on pseudotyped …
Experiment: cell-based or functional assay
Remark: another data set of the same source

| Binder | Pseudovirus neutralization IC50 |
| --- | --- |
| B7 | 272 nM |
| B8 | 146 nM |
| B11 | 2.41 nM |

From patent publication US20240150440A1 (LUMEN BIOSCIENCE, published 2024)
